The values below come from patent publication US20050221433A1.

The test has as its target recombinant human IL-18 (human) (UniProt Q14116). The test can be described thus: cell-based or functional assay.

Residue numbers refer to the chain shown, from its start. Numbers in names are those of the source.

recombinant human IL-18 (human), sequence (Q14116 37-193 limits assumed): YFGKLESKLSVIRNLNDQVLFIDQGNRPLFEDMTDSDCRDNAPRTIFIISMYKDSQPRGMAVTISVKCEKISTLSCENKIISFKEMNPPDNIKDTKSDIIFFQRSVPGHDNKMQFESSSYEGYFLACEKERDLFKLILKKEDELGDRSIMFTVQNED

B1: mIL18BPd (C45S).mFc (Fc fusion, not shown: a dimerising Fc or GST)
chain: TSAPQTTATVLTGSSKDPSSSWSPAVPTKQYPALDVIWPEKEVPLNGTLTLSCTACSRFPYFSILYWLGNGSFIEHLPGRLKEGHTSREHRNTSTWLHRALVLEELSPTLRSTNFSCLFVDPGQVAQYHIILAQLWDGLKTAPPPSQETLSSHSPVSRSAGPGVA
For B1, the IC50 (M), HEK293/NFkB-luciferase bioassay amounted to 1.67e-10 M.

B2: mIL18BPd.mFc (Fc fusion, not shown: a dimerising Fc or GST)
chain: B1 chain with S19C
Turning to B2, the IC50 (M), HEK293/NFkB-luciferase bioassay came out at 9.6e-11 M.
